From the RNAGym collection of RNA variant scans (doi:10.1093/molbev/msab373)

B1: Azoarcus group I ribozyme (parent)
chain: GUGCCUUGCGCCGGGAAACCACGCAAGGGAUGGUGUCAAAUUCGGCGAAACCUAAGCGCCCGCCCGGGCGUAUGGCAACGCCGAGCCAAGCUUCGGCGCCUGCGCCGAUGAAGGUGUAGAGACUAGACGGCACCCACCUAAGGCAAACGCUAUGGUGAAGGCAUAGUCCAGGGAGUGGCGAAAGUCACACAAACCGG

Variants of: B1
Assay: reverse-splicing fitness (ratio to wild type); higher = more active; in vitro selection; Mg2+ level not given
Summary of the method: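 An in vitro group I ribozyme library with randomized positions was T7-transcribed and gel-purified. In triplicate, 10 pmol RNA in EPPS pH 7.5 was reacted with 50 pmoles of a 30-nt RNA substrate for 1 h at 37 °C across several added MgCl2 levels (1–48 mM), then stopped with EDTA. Products were reverse transcribed from a substrate-complementary primer, PCR-amplified and sequenced (HiSeq 4000). Fitness is a variant's read proportion after selection over that before, normalised to wild type.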
A111U A120C A145U C150G C169A U176C showed a reverse-splicing fitness of 0.00757.
A111U A120C A145U C150G C169A U176A gave a reverse-splicing fitness of 0.00913.
Work on A111U A120C A145U C150G C169A U176G yielded a reverse-splicing fitness of 0.00497.
In the case of A111U A120C C150G C169U U176C, the reverse-splicing fitness is reported as 0.0162.
With A111U A120C C150G C169U U176A the reverse-splicing fitness was 0.00853.
With A111U A120C C150G C169U U176G the reverse-splicing fitness was 0.00475.
In the case of A111G C169U U176C, the reverse-splicing fitness is reported as 0.0614.
Work on A111G C169U U176G yielded a reverse-splicing fitness of 0.00769.
With A111G C169U U176A the reverse-splicing fitness was 0.0489.
A111U A120C A145C C150G U176A gave a reverse-splicing fitness of 0.0176.
A111U A120C A145C C150G U176C gave a reverse-splicing fitness of 0.04.
For A111U A120C A145C C150G U176G, the reverse-splicing fitness was 0.00429.
In the case of A111G C150A U176A, the reverse-splicing fitness is reported as 0.275.
A111G C150A U176C showed a reverse-splicing fitness of 0.264.
With A111G C150A U176G the reverse-splicing fitness was 0.103.
For A111U A120C A145C C150U C169G U176C, the reverse-splicing fitness was 0.00958.
For A111U A120C A145C C150U C169G U176A, the reverse-splicing fitness was 0.0171.
For A111U A120C A145C C150U C169G U176G, the reverse-splicing fitness was 0.00481.
A111U A120C C150G C169U gave a reverse-splicing fitness of 0.02.
Variant A111U A120C C150G C169A has a reverse-splicing fitness of 0.00861.
Variant A111U A120C C150G C169G has a reverse-splicing fitness of 0.0073.
Variant A111U A120C A145U C169A U176A has a reverse-splicing fitness of 0.00962.
In the case of A111U A120C A145U C169A U176G, the reverse-splicing fitness is reported as 0.0044.
With A111U A120C A145U C169A U176C the reverse-splicing fitness was 0.0106.
Variant A111U A120C A145G C150G U176A has a reverse-splicing fitness of 0.0125.
Variant A111U A120C A145G C150G U176C has a reverse-splicing fitness of 0.0344.
A111U A120C A145G C150G U176G gave a reverse-splicing fitness of 0.00627.
Work on A111G A145U C169G U176A yielded a reverse-splicing fitness of 0.0268.
In the case of A111G A145U C169G U176C, the reverse-splicing fitness is reported as 0.0429.
A111G A145U C169G U176G showed a reverse-splicing fitness of 0.00522.
In the case of A111G C150G C169U U176C, the reverse-splicing fitness is reported as 0.0163.
A111G C150G C169U U176A showed a reverse-splicing fitness of 0.00683.
A111G C150G C169U U176G showed a reverse-splicing fitness of 0.00532.
With A111U A120C A145C C150A C169G the reverse-splicing fitness was 0.00677.
A111U A120C A145C C150A C169A gave a reverse-splicing fitness of 0.00677.
In the case of A111U A120C A145C C150A C169U, the reverse-splicing fitness is reported as 0.013.
Work on A111U A120C A145U C150A U176C yielded a reverse-splicing fitness of 0.0509.
For A111U A120C A145U C150A U176G, the reverse-splicing fitness was 0.0114.
With A111U A120C A145U C150A U176A the reverse-splicing fitness was 0.034.
A111U A120C A145C C150A C169G U176G showed a reverse-splicing fitness of 0.00536.
Work on A111U A120C A145C C150A C169G U176A yielded a reverse-splicing fitness of 0.0194.
For A111U A120C A145C C150A C169G U176C, the reverse-splicing fitness was 0.00889.
With A111U A120C C169U U176C the reverse-splicing fitness was 0.0473.
A111U A120C C169U U176G showed a reverse-splicing fitness of 0.00626.
In the case of A111U A120C C169U U176A, the reverse-splicing fitness is reported as 0.0322.
In the case of A111U A120C A145U U176A, the reverse-splicing fitness is reported as 0.259.
In the case of A111U A120C A145U U176G, the reverse-splicing fitness is reported as 0.0572.
Work on A111U A120C A145U U176C yielded a reverse-splicing fitness of 0.3.
With A111U A120C A145C C169U the reverse-splicing fitness was 0.164.
For A111U A120C A145C C169G, the reverse-splicing fitness was 0.00891.
In the case of A111U A120C A145C C169A, the reverse-splicing fitness is reported as 0.00906.
Variant A111U A120C A145U C169G U176G has a reverse-splicing fitness of 0.00415.
Work on A111U A120C A145U C169G U176A yielded a reverse-splicing fitness of 0.00823.
Variant A111U A120C A145U C169G U176C has a reverse-splicing fitness of 0.00915.
With A111U A120C C150A U176G the reverse-splicing fitness was 0.0118.
A111U A120C C150A U176C showed a reverse-splicing fitness of 0.0574.
For A111U A120C C150A U176A, the reverse-splicing fitness was 0.0374.
In the case of A111U A120C A145C C169G U176G, the reverse-splicing fitness is reported as 0.00463.
For A111U A120C A145C C169G U176A, the reverse-splicing fitness was 0.023.
With A111U A120C A145C C169G U176C the reverse-splicing fitness was 0.0106.
A111U A120C A145G C150U C169A U176G gave a reverse-splicing fitness of 0.00555.
Work on A111U A120C A145G C150U C169A U176A yielded a reverse-splicing fitness of 0.0143.
Work on A111U A120C A145G C150U C169A U176C yielded a reverse-splicing fitness of 0.0138.
Work on A111G U176A yielded a reverse-splicing fitness of 0.794.
In the case of A111G U176G, the reverse-splicing fitness is reported as 0.354.
Variant A111G U176C has a reverse-splicing fitness of 0.752.
In the case of A111G A145U U176A, the reverse-splicing fitness is reported as 0.755.
With A111G A145U U176C the reverse-splicing fitness was 0.809.
In the case of A111G A145U U176G, the reverse-splicing fitness is reported as 0.524.
For A111U A120C C169A, the reverse-splicing fitness was 0.0124.
Variant A111U A120C C169G has a reverse-splicing fitness of 0.0098.
A111U A120C C169U gave a reverse-splicing fitness of 0.174.
For A111U A120C A145C C169A U176C, the reverse-splicing fitness was 0.00538.
A111U A120C A145C C169A U176A showed a reverse-splicing fitness of 0.00934.
A111U A120C A145C C169A U176G gave a reverse-splicing fitness of 0.00493.
Variant A111G C169G has a reverse-splicing fitness of 0.117.
For A111G C169A, the reverse-splicing fitness was 0.0602.
A111G C169U showed a reverse-splicing fitness of 0.196.
Work on A111U A120C C150A C169A U176A yielded a reverse-splicing fitness of 0.0178.
A111U A120C C150A C169A U176C showed a reverse-splicing fitness of 0.0133.
Work on A111U A120C C150A C169A U176G yielded a reverse-splicing fitness of 0.00474.
Work on A111G C169G U176G yielded a reverse-splicing fitness of 0.00607.
Variant A111G C169G U176A has a reverse-splicing fitness of 0.0309.
In the case of A111G C169G U176C, the reverse-splicing fitness is reported as 0.0577.
